B1: Mix10 (dsDNA)
DNA 1: GGGCGTGACTGAGCGCGGCGGCCCCGCG
DNA 2: CGCGGGGCCGCCGCGCTCAGTCACGCCC
B2: ATs10 (dsDNA)
DNA 1: GGGTTTTTTTTTTCGCGGCGGCCCCGCG
DNA 2: CGCGGGGCCGCCGCGAAAAAAAAAACCC
modifications: PS at the T10 tract linkages of the printed strand (GGGT*T*T*T*T*T*T*T*T*T*CGCG..); complementary strand unmodified
B3: ATf10 (dsDNA)
DNA 1: CGCGGGGCCGCCGCGAAAAAAAAAAACCC
DNA 2: GGGTTTTTTTTTTTCGCGGCGGCCCCGCG
B4: CG10 (dsDNA)
DNA 1: GGGCCCCCCCCCCCGCGGCGGCCCCGCG
DNA 2: CGCGGGGCCGCCGCGGGGGGGGGGGCCC

Experiments:
[1] = molecular target: T1, HMGA1b (full length) (UniProt P17096-2 P17096-2:1-96); assay: competition; equal amount did not interfere with HMGA1-ATf10 complex; 1:1 ATf10:HMGA1; conditions: tags: expressed from pET-30b in E. coli BL21(DE3); TCA precipitation and Sephadex G-25
Procedure: (§1) The HMGA protein samples were prepared in 25 mM Tris-HCl (pH 6.5), 50 mM NaCl, and the concentrations determined based on UV […] absorbance (ε=38,200 mol-1 cm-1). […] Nature structural biology 4 (1997) 657-665, the disclosure of which is incorporated herein by reference in its entirety and incubated at 4° C. for 15 minutes prior to gel analysis. The protein-DNA complexes were resolved on a 7.5% polyacrylmide gel and run with TAE buffer at 20 mA for 2-3 hours at 4° C. The DNA was detected at 495 nm using the VersaDoc™ Imaging System Model 3000 from BIO-RAD Laboratories, Inc. of Hercules, Calif. (USA). The gels were further stained with coomassie blue and visualized by an AlphaImager (Alpha Innotech, San Leandro, Calif.).

[2] = molecular target: T1, HMGA1b (full length); assay: competition; about half of ATf10 displaced at 1:1 ATf10:ATs10; similar affinity to unmodified DNA; conditions: tags: expressed from pET-30b in E. coli BL21(DE3); TCA precipitation and Sephadex G-25
Procedure: as §1

[3] = molecular target: T1, HMGA1b (full length); assay: EMSA; nearly completely shifted at DNA:HMGA1 1:1.5; 25 mM Tris-HCl pH 6.5, 50 mM NaCl, 4 C; conditions: tags: expressed from pET-30b in E. coli BL21(DE3); TCA precipitation and Sephadex G-25; label: 5'-6-FAM
Procedure: as §1

T1 sequence (P17096 other isoform, or with tags, fused parts or gaps): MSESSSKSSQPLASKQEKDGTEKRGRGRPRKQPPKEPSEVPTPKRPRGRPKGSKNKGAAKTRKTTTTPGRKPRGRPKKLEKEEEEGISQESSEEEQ

Binder | binding result [1] | further results
B1 | no binding | –
B2 | – | binding signal [2]: ~1 fold affinity vs ATf10
B3 | – | binding result [3]: binds
B4 | no binding | –
